Test results from the nanobody polyreactivity screen of Harvey et al. (2022).

Assay: yeast display, Sf9 membrane polyspecificity reagent, FACS + sequencing; frameworks hold sequencing errors
In short: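 Using colony PCR, genes from sorted yeast display clones were amplified, then sequenced on MiSeq at 2 × 250 and filtered by CDR length. The clones had been stained with 10% biotinylated, detergent-solubilized Sf9 membrane reagent for 1 hour at 4 °C and sorted by FACS into low and high (top ~1%) gates on anti-HA and streptavidin fluorescence. Polyreactivity labels come from the gate of origin.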
In the case of “QVQLVESGGGLDQAGGSLRLSCAASGIIFWYNARGWYRQAPGKERELVAAINYGGSTNYADSVKGRFTISRDNAKNTVYLQMNSLKQEDTAVDYCNADRSVIHRGYIWQPGRNDYWGQGTQVNVSS”, the “polyreactivity (PSR sort gate)” value is reported as “low polyreactivity”.
In the case of “QVQLVESGGGLDQAGGSLRLSCAASGITFDYYAIGWYRQAPGKERELVAAISRAGSTNYADSVKGRFTISRDNAKNTVYLQMNSLKPEDTAVYYCNNGYHSWSRLSQFGWSYDYWGQGTQVTVSS”, the “polyreactivity (PSR sort gate)” value is reported as “high polyreactivity”.
For “QVQLVESGGGLDQAGGSLRLSCAASGITFGFNAMGWYRQAPGIERELVAAITYRGGSTYYADSVKGRFTISGDNAKNTVYLQMNSLKPEDTAVYYCAADIGRHTDNYDPRYDYWGQGTQVTVSS”, the “polyreactivity (PSR sort gate)” value was “low polyreactivity”.
With “QVQLVESGGGLDQAGGSLRLSCAASGITFTSYAMGWYRQAPGTEREFVAAISWTDTSTYYADSVKGRFTISRDNAKNTVYLQMNSLKPEDTAVYYCADEYEVGYFGYEYWGQGTQVTVSS” the “polyreactivity (PSR sort gate)” value was “high polyreactivity”.
In the case of “QVQLVESGGGLDQAGGSLRLSCAASGITIIGYAMGWYRQAHGKERELVASITSGANTNYADSVKGRFTISRANAKNTVYFQMNSLKPEATAVYYCAAPEHGTYANILGEPLDYWGQGSQVTVSS”, the “polyreactivity (PSR sort gate)” value is reported as “low polyreactivity”.
For “QVQLVESGGGLDQAGGSLRLSCAASGLIFKLYDMGWSRQAPGKERELVATISRGTSTYYADSVKGRFTISRDNAKNTVDLQMNSLKPEDTAVYYCNARLDYGRAFPLFKYISGMYYWGQGTQVTVSS”, the “polyreactivity (PSR sort gate)” value was “low polyreactivity”.
In the case of “QVQLVESGGGLDQAGGSLRLSCAASGLIFQVYAMGWYRQAPGKERELVAAISRSGGRTYNADSVKGRFTISRDNAKNTVYLQMNSLKPEDTAVYYCAAESYVDYPRWYDYWGQGTQVTVSS”, the “polyreactivity (PSR sort gate)” value is reported as “high polyreactivity”.
In the case of “QVQLVESGGGLDQAGGSLRLSCAASGNIFPAYAMGWYRQAPGKERELVAAISKSGGRTYYADSVKGRFTISRDNAKKTVYLVMNSLKPEDSAVYFCAARDRRYQWTSWYDYWGQGTQVTVSS”, the “polyreactivity (PSR sort gate)” value is reported as “high polyreactivity”.
In the case of “QVQLVESGGGLDQAGGSLRLSCAASGNIFSDSTMGWYRQAPGKEIELVAAISGDGGTTYYADSVKGRFTISRDNAKHTVYLQMNSLKPEDTAVYFCAGDGYYDAYDQFFIVYYEYDYWGQGTQVTVSS”, the “polyreactivity (PSR sort gate)” value is reported as “low polyreactivity”.
With “QVQLVESGGGLDQAGGSLRLSCAASGNIVYNGMGWYRQAPGKERELVAAIRGSGGRTYADSVKGRFTISRDNAKNTVYLQMNSLKPEDTAVYYCATRRWYAYGVYYWGQGTQVTVSS” the “polyreactivity (PSR sort gate)” value was “high polyreactivity”.
For “QVQLVESGGGLDQAGGSLRLSCAASGRIFPFNAMGWYRQAAGKERELVASIRSTGGNTYYADSVKGRFTISRDNAKNTVYLQMISLIPEDSAVYYWGQGTQVTVSS”, the “polyreactivity (PSR sort gate)” value was “low polyreactivity”.
With “QVQLVESGGGLDQAGGSLRLSCAASGRIFSYYTMGWYRQAPGKERELVAAITWGGGSTSYADSVKGRFTISRDNAKNTVYLQMNSLKPEDTAVYYCAESPGANRMDYWGQGTQVTVSS” the “polyreactivity (PSR sort gate)” value was “low polyreactivity”.
In the case of “QVQLVESGGGLDQAGGSLRLSCAASGRIIRYYAKGWYRQAPGKEREFVATISSGGSTNYADSVKGRFTISRDNAKNNVYLQMNSLKQEHTSVYYCNRVYSRHVWGQGTQVTVSS”, the “polyreactivity (PSR sort gate)” value is reported as “high polyreactivity”.
In the case of “QVQLVESGGGLDQAGGSLRLSCAASGRILTGYAMGWYRQAPVKVRELVAAISNDTDSTHYADSVKGRFTISRDNAKKTVYLQMNSLKPEATAVYYCATDAPLQKRWRRFDYWGQGTHVTVSS”, the “polyreactivity (PSR sort gate)” value is reported as “low polyreactivity”.
In the case of “QVQLVESGGGLDQAGGSLRLSCAASGRNYGLYAMGWYIQAPWKERELVAAITRTASTNYADSVNGRFTISRDNAKNTVYLQMNSLKPEDTAVYYCAAESWYPSDLWYTYEYWGQGTQVTVSS”, the “polyreactivity (PSR sort gate)” value is reported as “low polyreactivity”.
With “QVQLVESGGGLDQAGGSLRLSCAASGRTFDFYAMGWYRQAPGKEMELVAAITFSTGSTTYADSVKGRFTISRDNAKNTVYLQMNSLKPEDTAVYYCAADGDGWWWSYVDRYDYWGQGTQVTVSS” the “polyreactivity (PSR sort gate)” value was “low polyreactivity”.
For “QVQLVESGGGLDQAGGSLRLSCAASGRTFGYYARGWYRQAPGKERELVAAISYSGGTTYYADSVKGRYTISRDNAKNTVYLQMNSLKPEDTAVYYCATGGYSTRQSTFDYWGQGTQVTVSS”, the “polyreactivity (PSR sort gate)” value was “low polyreactivity”.
With “QVQLVESGGGLDQAGGSLRLSCAASGRTFIYNAMGWYRQAPGKEREFVAAITWSGATTRYADSVKGRFTISRDNAKNTVYLQMNSLKPEDTAVYYCAKGGFYYYGWRSSMDYWGQGTQVTVSS” the “polyreactivity (PSR sort gate)” value was “high polyreactivity”.
In the case of “QVQLVESGGGLDQAGGSLRLSCAASGRTFWNYAMGWYRQAPGKERELVAVIRFSDGSTYYADSVKGRFTISRDNAKNTVYLQMNSLKPEDTAVYYCAAKGPRRWASGFDYWGQGTQVTVSS”, the “polyreactivity (PSR sort gate)” value is reported as “low polyreactivity”.
In the case of “QVQLVESGGGLDQAGGSLRLSCAASGRTFYANPMGWYRQAPGKQRELVAAIRRSGGRTYYADSVKGRFTISRDNAKNTVYLQMNSLKPEDTAVYYCATARYRAEMGYWGQGTQVTVSS”, the “polyreactivity (PSR sort gate)” value is reported as “high polyreactivity”.
With “QVQLVESGGGLDQAGGSLRLSCAASGRTIRYYTMGWYRQAPGTERELVATIRRGGTTYYADSVKGRFTISRDNAKNTVYLQMNSLKPEDTAVYYCAKESLYQYDYWGQGTQVTVSS” the “polyreactivity (PSR sort gate)” value was “low polyreactivity”.
For “QVQLVESGGGLDQAGGSLRLSCAASGRTYYRYAMGWYRQAPGKESELVAAITWSGGSSYYADSVKGRFTTSRDNAKNTVYLQRNTLKPEDTAVYYCARRLYPYRPTAYDSWGQGTQVTVAS”, the “polyreactivity (PSR sort gate)” value was “low polyreactivity”.
For “QVQLVESGGGLDQAGGSLRLSCAASGSIFFYNVLGWYRQAPGKERELVASISWRGASTYYADSVKGRFTISRDNAKNTVYLQMNSLKPEDTAVYYCAARFRSATRYQTGYYWGQGTQVTVSS”, the “polyreactivity (PSR sort gate)” value was “high polyreactivity”.
In the case of “QVQLVESGGGLDQAGGSLRLSCAASGSIFHWNVMGWYRQAPGKERKLVAVISSSDGSTNYADSVKGRFTISRDNAKNTVYLQMNCLKPEDTAVYYCAARGYAINYLWPFNYWGQGTQVTVSS”, the “polyreactivity (PSR sort gate)” value is reported as “low polyreactivity”.
In the case of “QVQLVESGGGLDQAGGSLRLSCAASGSIFKYYVIGCYRQAPAKERELLAAISSGGSTYYADSVKGRFTISRDNAKNTVSLQLNSLKPEDTAVYFCAAKKAKSYYVSRYPRYYYWGQGTQVTVSS”, the “polyreactivity (PSR sort gate)” value is reported as “low polyreactivity”.
With “QVQLVESGGGLDQAGGSLRLSCAASGSIFPINAMGWYRQAPGKEREFDAAISSRGGSTYYADSVKGRFTISRDNAKNTVYFQMNSLKPEDTAVYYCAKYASVGYGRYPYDYWGQGTQVTVSS” the “polyreactivity (PSR sort gate)” value was “high polyreactivity”.
In the case of “QVQLVESGGGLDQAGGSLRLSCAASGSIFQYYAMGWYRQAPGKEREFVAAITSDGSSTYYADSVKGRFTISRDNAKNTVYLQMNSLKPEDTAVYYCAAGWVGYRLPSMYYWGQGTQVTVSS”, the “polyreactivity (PSR sort gate)” value is reported as “high polyreactivity”.
With “QVQLVESGGGLDQAGGSLRLSCAASGSIFTGNAMGLYRQAPGKERELVAAISSSGGSTYYADSVKGRFTISRDNAKNTVYLQMNSLKPEDTAVYYCAAYKYFLQYDYWGQGTQVTVSS” the “polyreactivity (PSR sort gate)” value was “low polyreactivity”.
In the case of “QVQLVESGGGLDQAGGSLRLSCAASGSIFYHNAMGWYRQAPGKERELVAAITGSGGSTYYADSVKWRFTISRDNAKNTFYLQMNSLKPEDTAVYYCAADYDYQYRYYYWGQGTQVTVSS”, the “polyreactivity (PSR sort gate)” value is reported as “low polyreactivity”.
For “QVQLVESGGGLDQAGGSLRLSCAASGSIIWYYAMGWYRQAPGKESELVASISRRGGSTYYADSVKGRFTISRDNAKYTVYLQMNSLKPEDTAVYYCAAYSRTTGSTVQGTYDYWGQGTQVSVSS”, the “polyreactivity (PSR sort gate)” value was “low polyreactivity”.
For “QVQLVESGGGLDQAGGSLRLSCAASGSISVWYVMGWYRQAPGKERELVAAITRSGGSTFYADSLKGRFTISRDNAKNTVYLQMNSLKPEDTAVYYCASDGGVAWGYGDWGQGTQVTVSS”, the “polyreactivity (PSR sort gate)” value was “low polyreactivity”.
In the case of “QVQLVESGGGLDQAGGSLRLSCAASGSTFDVYAMGRYRQAPGKVRELVAAISRSGGSTYYADSVKGRFTISRDYAKNNVYLQMYSLKPEDTAVYYCNARLARWGSYEYNYWGQGTQVTVSS”, the “polyreactivity (PSR sort gate)” value is reported as “low polyreactivity”.
With “QVQLVESGGGLDQAGGSLRLSCAASGSTFLYYAMGWYRQAPGKEREFVARITTRVGRTYYADSVKGRFTISRDNAKNTVSLQMNSLKPEDTAVYYCAAVRISRTPRGLYEYWGQGTQVTVSS” the “polyreactivity (PSR sort gate)” value was “high polyreactivity”.
With “QVQLVESGGGLDQAGGSLRLSCAASGSTFPSYAMGWYRQAPGKERELVAAINSGGGTNYADSVKGRFTISRDNAKNTVYLQMNSLKPEDTAVYYCAKSRYDYTKTEGGYWGQGTQVTVSS” the “polyreactivity (PSR sort gate)” value was “low polyreactivity”.
In the case of “QVQLVESGGGLDQAGGSLRLSCAASGSTFRFNAMGWYRQAPGKEREFVAAIRFTGGSSYYSDSVKGRFTISRDNAKNTVYLQMNSLKPDDTAVYYCNNADEYSTVEYDYWGQGTLVTVSS”, the “polyreactivity (PSR sort gate)” value is reported as “low polyreactivity”.
For “QVQLVESGGGLDQAGGSLRLSCAASGSTFYGYAMGWYRPAPGKERELVAGISSGDSTNYADSVKGRFTISRDNAKNTVYLQMNSLKPEDTAVYYCARDYSRHKGDYWGQGTQVTVSS”, the “polyreactivity (PSR sort gate)” value was “low polyreactivity”.
With “QVQLVESGGGLDQAGGSLRLSCAASGSTVVRYAMGWYRQAPGKEREFVATISRRGGSTYYADSVKGRFTISRDNAKNTVYLQMNSLKPEDTAVYYCAKQGEAALPYIYDHWGQGTQVTVSS” the “polyreactivity (PSR sort gate)” value was “low polyreactivity”.
For “QVQLVESGGGLDQAGGSLRLSCAASGYIFGSYAMGWYRQAPGKERELVAAITISGGRTYYADSVKGRFTISRDNAKNTVYLQMNSLLPEDTAVYYCAKDGERSRNGRIHYDYWGQGTKVTVSS”, the “polyreactivity (PSR sort gate)” value was “low polyreactivity”.
For “QVQLVESGGGLDQAGGSLRLSCAASGYTYGYYAMGWYRQAPGKERELVATISYSGGTTYYADSVRGRFTISRDNAKNTVYLQMNSLKPEDTAVYYCNARGYKRLYGYWVQGTQVTVSS”, the “polyreactivity (PSR sort gate)” value was “high polyreactivity”.
In the case of “QVQLVESGGGLDQAGGSLRLSCADSGFTSDGYAKGSYTQAPGKEREFVADINSDGSTNYADSVKARFTISRDNAKNTVYLQLNSLIPEDSAVYYCAKDQAAYYLIPWYPLHDYWGQGTQVTLSS”, the “polyreactivity (PSR sort gate)” value is reported as “low polyreactivity”.
In the case of “QVQLVESGGGLDQAGGSLRLSCASSGRIFRYNARGWYRQAPGKERELVAAITSGTGTNYADSVKGRFTISRDNAKNTVYLQMNRLTPEETAVYYCAVDYGYWRDSMGLGVFDYWGQGTQVTVSS”, the “polyreactivity (PSR sort gate)” value is reported as “low polyreactivity”.
In the case of “QVQLVESGGGLDQAGGSLRLSCDASGFIFVRYAMGWSRQAPGKERELVAGINSGGSTSYADSVKGRFTISRDNAKNTVYLQMNSLKPEDSAVYYCNADVYVGYEYEYWGQGTQVTVSS”, the “polyreactivity (PSR sort gate)” value is reported as “low polyreactivity”.
With “QVQLVESGGGLDQAGGSLRLSCPASGRIFPINAMGRYRQAPGKERELVAAISYSRGSTYYADSVKGRFTISRDNAKNTVYLQMNSLKPEDTAVYYCNARYPYSYYHRYYYWGQGTQVSVSS” the “polyreactivity (PSR sort gate)” value was “high polyreactivity”.
